# Data reported in patent publication US9738911B2, “Methods of producing 7-carbon chemicals via pyruvate and succinate semialdehyde aldol condensation” (INVISTA North America S.a r.l., priority 2012, dated 2017).
# Key:
# Type in all cases: biochemical
# [1] = ω-transaminase activity assay, reverse direction, 7-aminoheptanoate to pimelate semialdehyde; settings: 10 mM 7-aminoheptanoate, 10 mM pyruvate, cell free extract, 25° C., 4 h; against empty vector control (FIG. 15)
# Experimental: (§1) A sequence encoding an N-terminal His-tag was added to the genes from Chromobacterium violaceum, Pseudomonas syringae, Rhodobacter sphaeroides, and Vibrio Fluvialis encoding the ω-transaminases of SEQ ID NOs: 8, 10, 11 and 13, respectively (see FIGS. 7F-7G) such that N-terminal HIS tagged ω-transaminases could be produced. Each of the resulting modified genes was cloned into a pET21a expression vector under control of the T7 promoter and each expression vector was transformed into a BL21[DE3] E. coli host. The resulting recombinant E. coli strains were cultivated at 37° C. in a 250 mL shake flask culture containing 50 mL LB media and antibiotic selection pressure, with shaking at 230 rpm. Each culture was induced overnight at 16° C. using 1 mM IPTG.
# (§2) The pellet from each induced shake flask culture was harvested via centrifugation. Each pellet was resuspended and lysed via sonication. The cell debris was separated from the supernatant via centrifugation and the cell free extract was used immediately in enzyme activity assays.
# Enzyme activity assays in the reverse direction (i.e., 7-aminoheptanoate to pimelate semialdehyde) were performed in a buffer composed of a final concentration of 50 mM HEPES buffer (pH=7.5), 10 mM 7-aminoheptanoate, 10 mM pyruvate and 100 μM pyridoxyl 5′ phosphate. Each enzyme activity assay reaction was initiated by adding cell free extract of the ω-transaminase gene product or the empty vector control to the assay buffer containing the 7-aminoheptanoate and incubated at 25° C. for 4 h, with shaking at 250 rpm. The formation of L-alanine from pyruvate was quantified via RP-HPLC.
# [2] = ω-transaminase activity assay, forward direction, pimelate semialdehyde to 7-aminoheptanoate; settings: for substrate acceptance, formation of pyruvate from L-alanine by RP-HPLC: 10 mM pimelate semialdehyde, 10 mM L-alanine, cell free extract, 25° C., 4 h, against empty vector control (FIG. 16); for reversibility of ω-transaminase activity: pimelate semialdehyde accepted, 7-aminoheptanoate synthesized: conclusion from the forward and reverse assays of Example 2
# Experimental: as §1, §2
# Enzyme activity in the forward direction (i.e., pimelate semialdehyde to 7-aminoheptanoate) was confirmed for the transaminases of SEQ ID NO 10, SEQ ID NO 11 and SEQ ID NO 13. Enzyme activity assays were performed in a buffer composed of a final concentration of 50 mM HEPES buffer (pH=7.5), 10 mM pimelate semialdehyde, 10 mM L-alanine and 100 μM pyridoxyl 5′ phosphate. Each enzyme activity assay reaction was initiated by adding a cell free extract of the ω-transaminase gene product or the empty vector control to the assay buffer containing the pimelate semialdehyde and incubated at 25° C. for 4 h, with shaking at 250 rpm. The formation of pyruvate was quantified via RP-HPLC.
# [3] = ω-transaminase activity assay, 7-aminoheptanol to 7-oxoheptanol; settings: for substrate acceptance, formation of L-alanine by RP-HPLC: 10 mM 7-aminoheptanol, 10 mM pyruvate, cell free extract, 25° C., 4 h, against empty vector control (FIG. 19); for acceptance of 7-oxoheptanol, forming 7-aminoheptanol, concluded from reversibility: concluded from the reverse direction assay and Example 2
# Experimental: A nucleotide sequence encoding an N-terminal His-tag was added to the Chromobacterium violaceum, Pseudomonas syringae and Rhodobacter sphaeroides genes encoding the ω-transaminases of SEQ ID NOs: 8, 10 and 11, respectively (see FIGS. 7F and 7G) such that N-terminal HIS tagged ω-transaminases could be produced. The modified genes were cloned into a pET21a expression vector under the T7 promoter.
# Each expression vector was transformed into a BL21[DE3] E. coli host. Each resulting recombinant E. coli strain were cultivated at 37° C. in a 250 mL shake flask culture containing 50 mL LB media and antibiotic selection pressure, with shaking at 230 rpm. Each culture was induced overnight at 16° C. using 1 mM IPTG.
# as §2
# Enzyme activity assays in the reverse direction (i.e., 7-aminoheptanol to 7-oxoheptanol) were performed in a buffer composed of a final concentration of 50 mM HEPES buffer (pH=7.5), 10 mM 7-aminoheptanol, 10 mM pyruvate, and 100 μM pyridoxyl 5′ phosphate. Each enzyme activity assay reaction was initiated by adding cell free extract of the ω-transaminase gene product or the empty vector control to the assay buffer containing the 7-aminoheptanol and then incubated at 25° C. for 4 h, with shaking at 250 rpm. The formation of L-alanine was quantified via RP-HPLC.
Molecule,"substrate acceptance, formation of L-alanine from pyruvate by RP-HPLC [1]","substrate acceptance, formation of pyruvate from L-alanine by RP-HPLC [2]","reversibility of ω-transaminase activity: pimelate semialdehyde accepted, 7-aminoheptanoate synthesized [2]","substrate acceptance, formation of L-alanine by RP-HPLC [3]","acceptance of 7-oxoheptanol, forming 7-aminoheptanol, concluded from reversibility [3]"
SEQ ID NO 11: Rhodobacter sphaeroides ω-transaminase (Genbank Accession No. ABA81135.1),accepted 7-aminoheptanote as substrate,accepted pimelate semialdehyde as substrate,accepted pimelate semialdehyde as substrate and synthesized 7-aminoheptanoate as a reaction product,accepted 7-aminoheptanol as substrate,accept 7-oxoheptanol as substrate and form 7-aminoheptanol
"SEQ ID NO 13: Vibrio fluvialis ω-transaminase (Genbank Accession No. AEA39183.1) (protein, listed as Vibrio fluvialis) MNKPQSWEARAETYSLYGFTDMPSLHQRGTVVVTHGEGPYIVDVNGRRYLDANSGLWNMVAGFDHKGLIDAAKAQYERFPGYHAFFGRMSDQTVMLSEKLVEVSPFDSGRVFYTNSGSEANDTMVKMLWFLHAAEGKPQKRKILTRWNAYHGVTAVSASMTGKPYNSVFGLPLPGFVHLTCPHYWRYGEEGETEEQFVARLARELEETIQREGADTIAGFFAEPVMGAGGVIPPAKGYFQAILPILRKYDIPVISDEVICGFGRTGNTWGCVTYDFTPDAIISSKNLTAGFFPMGAVILGPELSKRLETAIEAIEEFPHGFTASGHPVGCAIALKAIDVVMNEGLAENVRRLAPRFEERLKHIAERPNIGEYRGIGFMWALEAVKDKASKTPFDGNLSVSERIANTCTDLGLICRPLGQSVVLCPPFILTEAQMDEMFDKLEKALDKVFAEVA",accepted 7-aminoheptanote as substrate,accepted pimelate semialdehyde as substrate,accepted pimelate semialdehyde as substrate and synthesized 7-aminoheptanoate as a reaction product,,
"SEQ ID NO 8: Chromobacterium violaceum ω-transaminase (Genbank Accession No. AAQ59697.1) (protein, listed as Chromobacterium violaceum) MQKQRTTSQWRELDAAHHLHPFTDTASLNQAGARVMTRGEGVYLWDSEGNKIIDGMAGLWCVNVGYGRKDFAEAARRQMEELPFYNTFFKTTHPAVVELSSLLAEVTPAGFDRVFYTNSGSESVDTMIRMVRRYWDVQGKPEKKTLIGRWNGYHGSTIGGASLGGMKYMHEQGDLPIPGMAHIEQPWWYKHGKDMTPDEFGVVAARWLEEKILEIGADKVAAFVGEPIQGAGGVIVPPATYWPEIERICRKYDVLLVADEVICGFGRTGEWFGHQHFGFQPDLFTAAKGLSSGYLPIGAVFVGKRVAEGLIAGGDFNHGFTYSGHPVCAAVAHANVAALRDEGIVQRVKDDIGPYMQKRWRETFSRFEHVDDVRGVGMVQAFTLVKNKAKRELFPDFGEIGTLCRDIFFRNNLIMRACGDHIVSAPPLVMTRAEVDEMLAVAERCLEEFEQTLKARGLA",accepted 7-aminoheptanote as substrate,,accepted pimelate semialdehyde as substrate and synthesized 7-aminoheptanoate as a reaction product,accepted 7-aminoheptanol as substrate,accept 7-oxoheptanol as substrate and form 7-aminoheptanol
